Results: PMC10204293, “S100A6 inhibits MDM2 to suppress breast cancer growth and enhance sensitivity to chemotherapy” (Breast Cancer Research : BCR, 2023)

Target: T1, HA-MDM2 full-length (1–491) (human, UniProt Q00987 1-491)
T1 construct: Cloned into a T7 promotor-HA expression vector; also called HA-tagged full-length MDM2; source: E. coli BL21 (DE3), purified (His-tag purification kit)
Assay: pull-down; about 100 µg of a mixture of GST, GST-S100A6 or its fragments with HA-MDM2 or its fragments on 100 µL glutathione agarose, overnight at 4 °C; blot with anti-HA
Settings: both partners purified

| binding result | Binder |
| --- | --- |
| binds | GST-S100A6 EF-hand I (1–47) (domain or fragment, S100A6, human, EF-hand I, residues 1–47; also called N-terminal EF-hand of S100A6; source: E. coli BL21 (DE3), purified (GST-tag purification kit)) not shown |
| binds | GST-S100A6 EF-hand II (48–90) (domain or fragment, S100A6, human, EF-hand II, residues 48–90; also called C-terminal EF-hand of S100A6; source: E. coli BL21 (DE3), purified (GST-tag purification kit)) not shown |
